Results reported in US20240228645A1 (DRAGONFLY THERAPEUTICS, published 2024).
Read-outs that look alike come from different tables or passages of the source.

Key:
[1] = molecular target: T1, human BAFF-R expressed on cells (hBAFF-R-CHO isogenic CHO cells; BAFF-R+ cancer cells) (human, UniProt Q96RJ3 1-184); test: flow cytometry on hBAFFR-CHO cells, anti-mouse IgG(H+L)-PE
T1 construct: whole, on cells; also called hBAFF-R^+ cells; BAFF-R+ CHO cells

[2] = molecular target: T1, human BAFF-R expressed on cells …; test: as above; remark: listed apart in the source

Binder	EC50 (read off the curve) [1]	EC50 (read off the curve) [2]
3A1 (antibody, V domains shown, Hybridoma clone from DNA-immunized SWR/J mice; also called clone 3A1) VH: QVQLQQPGAELVKPGASVKLSCKASGYTFTSYWMHWVKQRPGQGLEWIGEIDPFDSYTNYNQNFKGKATLTVDKSSSTAYMLLSSLTSDDSAVYYCARERLRLWSYYFDYWGQGTTLTVSS VL: DVVMTQTPLSLPVSLGDQASISCRSSQSIVHSNGNTYLEWYLQKPGQSPKLLIYKVSNRLSGVPDRFSGSGSGTDFTLKISRVEAEDLGVYYCFQGSHDPFTFGSGTKLEIK	~0.3 nM	–
1B3-A7 (antibody, V domains shown, Hybridoma clone from DNA-immunized SWR/J mice; also called clone 1B3-A7) VH: EVQLVESGGGLVKPGGSLKLSCVVSGFTFSNYAMSWVRQTPEKRLEWVATISDGGGYTYYPDSVKGRFTISRDNAKNNLYLQMSHLKSEDTAIYYCARDDLGGGNYVSSYFDVWGTGTTVTVSS VL: DVVMTQTPLSLPVSPGDQASISCRSSQSLVHSNGNTYLYWYLQKPGQSPKLLIYRVSNRFSGVPDRFSGSGSGTDFTLKINRVEAEDLGVYFCFQGTHVPLTFGSGTKLELK	–	1 to 2 nM

Now from value to binder:

EC50 (read off the curve) [1]	EC50 (read off the curve) [2]	Binder
~0.3 nM	–	7G4 (antibody, V domains shown, Hybridoma clone from DNA-immunized SWR/J mice; also called clone 7G4) VH: QVQLQQPGAELVKPGASVKLSCKASGYTFTSYWMHWVKQRPGQGLEWIGEVDPSDSYTNYNQKFKGKATLTVDKSSSTAYILLSNLTSDDSAVYYCARERVRLWSYFFDYWGQGTTLTVSS VL: DVVMTQTPLSLPVSLGDQASISCRSSQSIVHSNGNTYLEWYLQKPGQSPKLLIYKVSNRLSGVPDRFSGSGSGTDFTLKISRVEAEDLGVYYCFQGSHDPFTFGSGTKLEIK
–	~1 nM	10H7-C5 (antibody, V domains shown, Hybridoma clone from DNA-immunized SWR/J mice; also called clone 10H7-C5) VH: EVQLVESGGGLVKPGGSLKLSCAASGFSFSRYAMSWVRQTPEKRLEWVATISDGGSYTHYRDNVKGRFTISRDNAKNNLNLQMSHLKSEDTAIYYCARNEMGLYFDYDVYAMDYWGQGTSVTVSS VL: DIVMTQTPLSLPVSLGDQASISCRSSQSLLHSNGNTYLYWYLQKPGQSPKLLIHRVSNRFSGVPDRFGGSGSGTDFTLKIIRVEAEDLGVYFCFQGTHVPWTFGGGTKLEIK
